As usually defined, the Km is the concentration of substrate that gives half-maximal velocity.

Substrate in the data set: CC(C)=CCC[C@@H](C)[C@H]1CC[C@@]2(C)C3=C(CC[C@]12C)[C@@]1(C)CC[C@H](O)C(C)(C)[C@@H]1CC3
In words: Activity of Candida albicans CYP51.

B1: Lanosterol 14-alpha demethylase (Candida albicans SC5314) (protein)
chain: MAIVETVIDGINYFLSLSVTQQISILLGVPFVYNLVWQYLYSLRKDRAPLVFYWIPWFGSAASYGQQPYEFFESCRQKYGDVFSFMLLGKIMTVYLGPKGHEFVFNAKLSDVSAEDAYKHLTTPVFGKGVIYDCPNSRLMEQKKFAKFALTTDSFKRYVPKIREEILNYFVTDESFKLKEKTHGVANVMKTQPEITIFTASRSLFGDEMRRIFDRSFAQLYSDLDKGFTPINFVFPNLPLPHYWRRDAAQKKISATYMKEIKSRRERGDIDPNRDLIDSLLIHSTYKDGVKMTDQEIANLLIGILMGGQHTSASTSAWFLLHLGEKPHLQDVIYQEVVELLKEKGGDLNDLTYEDLQKLPSVNNTIKETLRMHMPLHSIFRKVTNPLRIPETNYIVPKGHYVLVSPGYAHTSERYFDNPEDFDPTRWDTAAAKANSVSFNSSDEVDYGFGKVSKGVSSPYLPFGGGRHRCIGEQFAYVQLGTILTTFVYNLRWTIDGYKVPDPDYSSMVVLPTEPAEIIWEKRETCMF
Regarding B1, the Km worked out at 7.4 µM.

Source of the values: ChEMBL document CHEMBL1671727, “Expression, purification, and characterization of Aspergillus fumigatus sterol 14-alpha demethylase (CYP51) isoenzymes A and B” (Antimicrob Agents Chemother, 2010).
